Assay results taken from the supplement of paper PMC5998384.

Tests used:
[1] = test system: HeLa Kyoto; assay: solubility change mitosis vs G1/S (difference of NP-40 vs SDS log2 ratios) (log2 ratio difference); higher = more soluble in mitosis
[2] = test system: HeLa Kyoto; assay: thermal stability score vs G1/S (z-score of summed log2 fold changes over temperatures); higher = more thermally stable than in G1/S
[3] = test system: HeLa Kyoto; assay: solubility in G1/S (NP-40 vs SDS abundance) (log2 ratio); higher = more soluble; conditions: cell cycle stage: G1/S
[4] = test system: HeLa Kyoto; assay: melting temperature (median over replicates), in situ; higher = more thermally stable
[5] = cell cycle stage: early G1 (4.5 h after nocodazole release)
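For melting temperature (median over replicates), in situ in this document: HeLa Kyoto cells synchronized by double thymidine or nocodazole block, proteins quantified by TMT10plex mass spectrometry, three independent biological replicates.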
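For solubility change mitosis vs G1/S (difference of NP-40 vs SDS log2 ratios) in this document: synchronized HeLa Kyoto cells (double thymidine block for G1/S, nocodazole release for mitosis), protein amounts in NP-40 versus SDS lysates quantified by mass spectrometry, three biological replicates.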
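For solubility in G1/S (NP-40 vs SDS abundance) in this document: HeLa Kyoto cells arrested at G1/S by double thymidine block, proteins quantified by TMT10plex mass spectrometry in mild NP-40 versus SDS extracts, three biological replicates.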
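For thermal stability score vs G1/S (z-score of summed log2 fold changes over temperatures) in this document: synchronized HeLa Kyoto cells, proteins quantified by TMT10plex mass spectrometry, three biological replicates, mitosis taken 0.5 h after nocodazole release, G1/S directly after double thymidine block.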

| Substance | solubility change mitosis (log2) [1] | thermal stability score [2, 5] | thermal stability score ([2]; cell cycle stage: mitosis) | solubility in G1/S (log2) [3] | melting temperature ([4]; cell cycle stage: G1/S) | melting temperature ([4]; cell cycle stage: mitosis) |
| --- | --- | --- | --- | --- | --- | --- |
| MATSMAAASGRFESAKSIEERKEQTRNARAEVLRQAKANFEKEERRKELKRLRGEDTWMLPDVNERIEQFSQEHSVKKKKKKDKHSKKAKKEKKKKSKKQKYEKNNESSDSSSSSEDEWVEAVPSQTPDKEKAWKVKDEKSGKDDTQIIKRDEWMTVDFMSVKTVSSSSLKAEKETMRKIEQEKNQALEQSKLMERELNPYWKDGGTGLPPEDCSVSSITKVSVVEDGGLSWLRKSYLRMKEQAEKQSRNFEDIVAERYGSMEIFQSKLEDAEKAASTKEDYRRERWRKPTYSDKAQNCQESRESDLVKYGNSSRDRYATTDTAKNSNNEKFIGDEKDKRPGSLETCRRESNPRQNQEFSFGNLRAKFLRPSDDEELSFHSKGRKFEPLSSSSALVAQGSLCSGFRKPTKNSEERLTSWSRSDGRGDKKHSNQKPSETSTDEHQHVPEDPREKSQDEVLRDDPPKKEHLRDTKSTFAGSPERESIHILSVDEKNKLGAKIIKAEMMGNMELAEQLKVQLEKANKFKETITQIPKKSGVENEDQQEVILVRTDQSGRVWPVNTPGKSLESQGGRRKRQMVSTHEERERVRYFHDDDNLSLNDLVKNEKMGTAENQNKLFMRMASKFMGKTDGDYYTLDDMFVSKAAERERLGEEEENQRKKAIAEHRSLAAQMEKCLYCFDSSQFPKHLIVAIGVKVYLCLPNVRSLTEGHCLIVPLQHHRAATLLDEDIWEEIQMFRKSLVKMFEDKGLDCIFLETNMSMKKQYHMVYECIPLPKEVGDMAPIYFKKAIMESDEEWSMNKKLIDLSSKDIRKSVPRGLPYFSVDFGLHGGFAHVIEDQHKFPHYFGKEIIGGMLDIEPRLWRKGIRESFEDQRKKALQFAQWWKPYDFTKSKNY [CWF19L2] | 0.121 | 0.398 | 2.26 | -0.379 | 49.4 °C | 49.2 °C |
| MESGAYGAAKAGGSFDLRRFLTQPQVVARAVCLVFALIVFSCIYGEGYSNAHESKQMYCVFNRNEDACRYGSAIGVLAFLASAFFLVVDAYFPQISNATDRKYLVIGDLLFSALWTFLWFVGFCFLTNQWAVTNPKDVLVGADSVRAAITFSFFSIFSWGVLASLAYQRYKAGVDDFIQNYVDPTPDPNTAYASYPGASVDNYQQPPFTQNAETTEGYQPPPVY [SYNGR2] | -0.171 | -2 | -3.51 | 0.192 | 54.9 °C | 56.3 °C |
| MDFEDDYTHSACRNTYQGFNGMDRDYGPGSYGGMDRDYGHGSYGGQRSMDSYLNQSYGMDNHSGGGGGSRFGPYESYDSRSSLGGRDLYRSGYGFNEPEQSRFGGSYGGRFESSYRNSLDSFGGRNQGGSSWEAPYSRSKLRPGFMEDRGRENYSSYSSFSSPHMKPAPVGSRGRGTPAYPESTFGSRNYDAFGGPSTGRGRGRGHMGDFGSIHRPGIVVDYQNKSTNVTVAAARGIKRKMMQPFNKPSGTFIKKPKLAKPMEKISLSKSPTKTDPKNEEEEKRRIEARREKQRRRREKNSEKYGDGYRMAFTCSFCKFRTFEEKDIELHLESSSHQETLDHIQKQTKFDKVVMEFLHECMVNKFKKTSIRKQQTNNQTEVVKIIEKDVMEGVTVDDHMMKVETVHCSACSVYIPALHSSVQQHLKSPDHIKGKQAYKEQIKRESVLTATSILNNPIVKARYERFVKGENPFEIQDHSQDQQIEGDEEDEEKIDEPIEEEEDEDEEEEAEEVGEVEEVEEVEEVREGGIEGEGNIQGVGEGGEVGVVGEVEGVGEVEEVEELEEETAKEEPADFPVEQPEEN [ZNF326] | 0.239 | 3.18 | 7.29 | -0.456 | 47 °C | 49.1 °C |
| MVPALRYLVGACGRARGLFAGGSPGACGFASGRPRPLCGGSRSASTSSFDIVIVGGGIVGLASARALILRHPSLSIGVLEKEKDLAVHQTGHNSGVIHSGIYYKPESLKAKLCVQGAALLYEYCQQKGISYKQCGKLIVAVEQEEIPRLQALYEKGLQNGVPGLRLIQQEDIKKKEPYCRGLMAIDCPHTGIVDYRQVALSFAQDFQEAGGSVLTNFEVKGIEMAKESPSRSIDGMQYPIVIKNTKGEEIRCQYVVTCAGLYSDRISELSGCTPDPRIVPFRGDYLLLKPEKCYLVKGNIYPVPDSRFPFLGVHFTPRMDGSIWLGPNAVLAFKREGYRPFDFSATDVMDIIINSGLIKLASQNFSYGVTEMYKACFLGATVKYLQKFIPEITISDILRGPAGVRAQALDRDGNLVEDFVFDAGVGDIGNRILHVRNAPSPAATSSIAISGMIADEVQQRFEL [L2HGDH] | -0.123 | 0.996 | 0.751 | 0.0471 | 53.9 °C | 53.6 °C |
| SNRNP200 | 0.171 | 2.93 | 4.86 | -0.756 | 50 °C | 50.8 °C |
| MPGSAAKGSELSERIESFVETLKRGGGPRSSEEMARETLGLLRQIITDHRWSNAGELMELIRREGRRMTAAQPSETTVGNMVRRVLKIIREEYGRLHGRSDESDQQESLHKLLTSGGLNEDFSFHYAQLQSNIIEAINELLVELEGTMENIAAQALEHIHSNEVIMTIGFSRTVEAFLKEAARKRKFHVIVAECAPFCQGHEMAVNLSKAGIETTVMTDAAIFAVMSRVNKVIIGTKTILANGALRAVTGTHTLALAAKHHSTPLIVCAPMFKLSPQFPNEEDSFHKFVAPEEVLPFTEGDILEKVSVHCPVFDYVPPELITLFISNIGGNAPSYIYRLMSELYHPDDHVL [EIF2B2] | -0.191 | 1.74 | 0.854 | 0.101 | 51.4 °C | 50.5 °C |
| TPR | 0.191 | -1.4 | 0.657 | -0.23 | 50.3 °C | 50.8 °C |
| MGKVNVAKLRYMSRDDFRVLTAVEMGMKNHEIVPGSLIASIASLKHGGCNKVLRELVKHKLIAWERTKTVQGYRLTNAGYDYLALKTLSSRQVVESVGNQMGVGKESDIYIVANEEGQQFALKLHRLGRTSFRNLKNKRDYHKHRHNVSWLYLSRLSAMKEFAYMKALYERKFPVPKPIDYNRHAVVMELINGYPLCQIHHVEDPASVYDEAMELIVKLANHGLIHGDFNEFNLILDESDHITMIDFPQMVSTSHPNAEWYFDRDVKCIKDFFMKRFSYESELFPTFKDIRREDTLDVEVSASGYTKEMQADDELLHPLGPDDKNIETKEGSEFSFSDGEVAEKAEVYGSENESERNCLEESEGCYCRSSGDPEQIKEDSLSEESADARSFEMTEFNQALEEIKGQVVENNSVTEFSEEKNRTENYNRQDGQRVQGGVPAGSDEYEDECPHLIALSSLNREFRPFRDEENVGAMNQYRTRTLSITSSGSAVSCSTIPPELVKQKVKRQLTKQQKSAVRRRLQKGEANIFTKQRRENMQNIKSSLEAASFWGE [RIOK2] | -0.21 | -0.571 | -0.171 | -0.263 | 52.5 °C | 52 °C |
| MLGRSLREVSAALKQGQITPTELCQKCLSLIKKTKFLNAYITVSEEVALKQAEESEKRYKNGQSLGDLDGIPIAVKDNFSTSGIETTCASNMLKGYIPPYNATVVQKLLDQGALLMGKTNLDEFAMGSGSTDGVFGPVKNPWSYSKQYREKRKQNPHSENEDSDWLITGGSSGGSAAAVSAFTCYAALGSDTGGSTRNPAAHCGLVGFKPSYGLVSRHGLIPLVNSMDVPGILTRCVDDAAIVLGALAGPDPRDSTTVHEPINKPFMLPSLADVSKLCIGIPKEYLVPELSSEVQSLWSKAADLFESEGAKVIEVSLPHTSYSIVCYHVLCTSEVASNMARFDGLQYGHRCDIDVSTEAMYAATRREGFNDVVRGRILSGNFFLLKENYENYFVKAQKVRRLIANDFVNAFNSGVDVLLTPTTLSEAVPYLEFIKEDNRTRSAQDDIFTQAVNMAGLPAVSIPVALSNQGLPIGLQFIGRAFCDQQLLTVAKWFEKQVQFPVIQLQELMDDCSAVLENEKLASVSLKQ [QRSL1] | -0.131 | -0.191 | -0.152 | 0.0331 | 50 °C | 50.4 °C |
| MAAPDLSTNLQEEATCAICLDYFTDPVMTDCGHNFCRECIRRCWGQPEGPYACPECRELSPQRNLRPNRPLAKMAEMARRLHPPSPVPQGVCPAHREPLAAFCGDELRLLCAACERSGEHWAHRVRPLQDAAEDLKAKLEKSLEHLRKQMQDALLFQAQADETCVLWQKMVESQRQNVLGEFERLRRLLAEEEQQLLQRLEEEELEVLPRLREGAAHLGQQSAHLAELIAELEGRCQLPALGLLQDIKDALRRVQDVKLQPPEVVPMELRTVCRVPGLVETLRRFRGDVTLDPDTANPELILSEDRRSVQRGDLRQALPDSPERFDPGPCVLGQERFTSGRHYWEVEVGDRTSWALGVCRENVNRKEKGELSAGNGFWILVFLGSYYNSSERALAPLRDPPRRVGIFLDYEAGHLSFYSATDGSLLFIFPEIPFSGTLRPLFSPLSSSPTPMTICRPKGGSGDTLAPQ [TRIM11] | -0.192 | 0.605 | 0.584 | 0.185 | 50.8 °C | 49.4 °C |
| MGDTSEDASIHRLEGTDLDCQVGGLICKSKSAASEQHVFKAPAPRPSLLGLDLLASLKRREREEKDDGEDKKKSKVSSYKDWEESKDDQKDAEEEGGDQAGQNIRKDRHYRSARVETPSHPGGVSEEFWERSRQRERERREHGVYASSKEEKDWKKEKSRDRDYDRKRDRDERDRSRHSSRSERDGGSERSSRRNEPESPRHRPKDAATPSRSTWEEEDSGYGSSRRSQWESPSPTPSYRDSERSHRLSTRDRDRSVRGKYSDDTPLPTPSYKYNEWADDRRHLGSTPRLSRGRGRREEGEEGISFDTEEERQQWEDDQRQADRDWYMMDEGYDEFHNPLAYSSEDYVRRREQHLHKQKQKRISAQRRQINEDNERWETNRMLTSGVVHRLEVDEDFEEDNAAKVHLMVHNLVPPFLDGRIVFTKQPEPVIPVKDATSDLAIIARKGSQTVRKHREQKERKKAQHKHWELAGTKLGDIMGVKKEEEPDKAVTEDGKVDYRTEQKFADHMKRKSEASSEFAKKKSILEQRQYLPIFAVQQELLTIIRDNSIVIVVGETGSGKTTQLTQYLHEDGYTDYGMIGCTQPRRVAAMSVAKRVSEEMGGNLGEEVGYAIRFEDCTSENTLIKYMTDGILLRESLREADLDHYSAIIMDEAHERSLNTDVLFGLLREVVARRSDLKLIVTSATMDAEKFAAFFGNVPIFHIPGRTFPVDILFSKTPQEDYVEAAVKQSLQVHLSGAPGDILIFMPGQEDIEVTSDQIVEHLEELENAPALAVLPIYSQLPSDLQAKIFQKAPDGVRKCIVATNIAETSLTVDGIMFVIDSGYCKLKVFNPRIGMDALQIYPISQANANQRSGRAGRTGPGQCFRLYTQSAYKNELLTTTVPEIQRTNLANVVLLLKSLGVQDLLQFHFMDPPPEDNMLNSMYQLWILGALDNTGGLTSTGRLMVEFPLDPALSKMLIVSCDMGCSSEILLIVSMLSVPAIFYRPKGREEESDQIREKFAVPESDHLTYLNVYLQWKNNNYSTIWCNDHFIHAKAMRKVREVRAQLKDIMVQQRMSLASCGTDWDIVRKCICAAYFHQAAKLKGIGEYVNIRTGMPCHLHPTSSLFGMGYTPDYIVYHELVMTTKEYMQCVTAVDGEWLAELGPMFYSVKQAGKSRQENRRRAKEEASAMEEEMALAEEQLRARRQEQEKRSPLGSVRSTKIYTPGRKEQGEPMTPRRTPARFGL [DHX38] | 0.0419 | 0.477 | 0.888 | -0.327 | 50.8 °C | 52 °C |
